Results: paper PMC10786891, “Massively parallel profiling of RNA-targeting CRISPR-Cas13d”
Positions count from the first letter of the chain named. Numbers in names are those of the source.

Target: T1, EsCas13d, nuclease-dead (Eubacterium siraeum, UniProt B0MS50, R295A;H300A;R849A;H854A)
T1 sequence: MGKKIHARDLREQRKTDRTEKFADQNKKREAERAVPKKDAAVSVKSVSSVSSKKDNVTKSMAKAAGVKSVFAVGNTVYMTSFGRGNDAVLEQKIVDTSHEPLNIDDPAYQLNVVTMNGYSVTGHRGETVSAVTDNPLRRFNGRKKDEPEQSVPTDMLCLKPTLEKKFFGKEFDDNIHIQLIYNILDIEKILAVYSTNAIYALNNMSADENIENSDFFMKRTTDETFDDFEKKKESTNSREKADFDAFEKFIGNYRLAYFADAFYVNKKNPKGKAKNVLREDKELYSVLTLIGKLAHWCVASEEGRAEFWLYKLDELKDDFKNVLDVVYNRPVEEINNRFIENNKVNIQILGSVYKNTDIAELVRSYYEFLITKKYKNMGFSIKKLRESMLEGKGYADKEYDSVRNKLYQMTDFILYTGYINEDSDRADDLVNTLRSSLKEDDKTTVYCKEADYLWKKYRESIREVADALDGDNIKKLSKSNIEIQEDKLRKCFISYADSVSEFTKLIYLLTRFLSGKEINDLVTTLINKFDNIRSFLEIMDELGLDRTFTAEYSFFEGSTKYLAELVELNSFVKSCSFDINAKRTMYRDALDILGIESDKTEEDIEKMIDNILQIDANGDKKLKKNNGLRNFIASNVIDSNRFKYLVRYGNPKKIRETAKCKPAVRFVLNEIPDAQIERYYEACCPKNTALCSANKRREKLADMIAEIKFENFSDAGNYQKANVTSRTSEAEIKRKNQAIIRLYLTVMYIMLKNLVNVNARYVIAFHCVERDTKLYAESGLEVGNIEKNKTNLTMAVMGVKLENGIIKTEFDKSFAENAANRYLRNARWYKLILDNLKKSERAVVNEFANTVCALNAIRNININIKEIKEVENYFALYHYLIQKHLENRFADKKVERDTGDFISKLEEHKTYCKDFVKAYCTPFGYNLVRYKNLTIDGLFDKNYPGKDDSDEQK
Test: crRNA (strand 1, pre-loaded); Mg2+; 40 mM Tris-HCl pH 7.5, 150 mM NaCl, 6 mM MgCl2, 1 mM DTT, 0.1% Tween-20, 0.2 mg/ml BSA; 25 C; 10 min per concentration, then washed
Conditions: tags: His6-TwinStrep-SUMO cleaved; N-terminal SNAP kept (SNAP-Surface 488); label: 3' end held by stalled T7 RNA polymerase

B1: target 1 U3G,A18C (mixed)
RNA 1: CACCCGUGCAAAAAUGCAGGGGUCUAAAACUGAGCGGAUAACCUCUCUAUGG
RNA 2: GGGAAUGGAUCCACAUCUACGAAUUCGUACCAUCGAGAGGUUAUCCGCGCACCGAGAUCGGAAGAGCACACGU
- Kd: 52 ± 4 nM

B2: target 1 insG 3' of 19,insA 3' of 11 (mixed)
RNA 1: B1 RNA 1
RNA 2: GGGAAUGGAUCCACAUCUACGAAUUCGUACCAUGAGAGAGGUAUAUCCGCUCACCGAGAUCGGAAGAGCACACGU
- Kd: 89 ± 16 nM

B3: target 1 G13U,G15A (mixed)
RNA 1: B1 RNA 1
RNA 2: B1 RNA 2 with C34A, G37A, G39U, G49U
- Kd: 22 ± 4 nM

B4: target 1 insC 3' of 13,insA 3' of 6 (mixed)
RNA 1: B1 RNA 1
RNA 2: GGGAAUGGAUCCACAUCUACGAAUUCGUACCAUAGAGAGCGUUAUCCAGCUCACCGAGAUCGGAAGAGCACACGU
- Kd: 11.7 ± 0.9 nM

B5: target 2 MT 5'PFS ACA 3'PFS UCU (mixed)
RNA 1: CACCCGUGCAAAAUUGCAGGGGUCUAAAACCUUCUCCAAAUUGUUUCAUCCU
RNA 2: GGGAAUGGAUCCACAUCUACGAAUUCACAAGGAUGAAACAAUUUGGAGAAGUCUAGAUCGGAAGAGCACACGU
- Kd: 8.6 ± 2.3 nM

B6: target 2 MT 5'PFS CUU 3'PFS CGU (mixed)
RNA 1: B5 RNA 1
RNA 2: B5 RNA 2 with A27C, C28U, A29U, U52C, C53G
- Kd: 3.8 ± 0.5 nM

B7: target 2 MT 5'PFS CUU 3'PFS CGC (mixed)
RNA 1: B5 RNA 1
RNA 2: B5 RNA 2 with A27C, C28U, A29U, U52C, C53G, U54C
- Kd: 5 ± 0.4 nM

B8: target 2 MT 5'PFS UAC 3'PFS AGC (mixed)
RNA 1: B5 RNA 1
RNA 2: B5 RNA 2 with A27U, C28A, A29C, U52A, C53G, U54C
- Kd: 4.2 ± 0.5 nM

B9: target 2 MT 5'PFS CGG 3'PFS UGU (mixed)
RNA 1: B5 RNA 1
RNA 2: B5 RNA 2 with A27C, C28G, A29G, C53G
- Kd: 9.3 ± 1.6 nM

B10: target 2 MT 5'PFS GUG 3'PFS AAG (mixed)
RNA 1: B5 RNA 1
RNA 2: B5 RNA 2 with A27G, C28U, A29G, U52A, C53A, U54G
- Kd: 12.4 ± 1.8 nM

B11: target 2 MT 5'PFS GUG 3'PFS AAA (mixed)
RNA 1: B5 RNA 1
RNA 2: B5 RNA 2 with A27G, C28U, A29G, U52A, C53A, U54A
- Kd: 9.7 ± 1.4 nM

B12: target 2 MT 5'PFS GUG 3'PFS CCA (mixed)
RNA 1: B5 RNA 1
RNA 2: B5 RNA 2 with A27G, C28U, A29G, U52C, U54A
- Kd: 21.2 ± 1.8 nM

B13: target 2 MT 5'PFS GUG 3'PFS AAC (mixed)
RNA 1: B5 RNA 1
RNA 2: B5 RNA 2 with A27G, C28U, A29G, U52A, C53A, U54C
- Kd: 10.5 ± 1.6 nM

B14: target 2 MT 5'PFS UGC 3'PFS CCG (mixed)
RNA 1: B5 RNA 1
RNA 2: B5 RNA 2 with A27U, C28G, A29C, U52C, U54G
- Kd: 61 ± 15 nM

B15: target 2 MT 5'PFS GUG 3'PFS AAU (mixed)
RNA 1: B5 RNA 1
RNA 2: B5 RNA 2 with A27G, C28U, A29G, U52A, C53A
- Kd: 8.6 ± 1 nM

B16: target 2 MT 5'PFS GUG 3'PFS CCG (mixed)
RNA 1: B5 RNA 1
RNA 2: B5 RNA 2 with A27G, C28U, A29G, U52C, U54G
- Kd: 13.6 ± 0.9 nM

B17: target 2 MT 5'PFS GAG 3'PFS CCG (mixed)
RNA 1: B5 RNA 1
RNA 2: B5 RNA 2 with A27G, C28A, A29G, U52C, U54G
- Kd: 6.77 ± 0.3 nM

B18: target 2 MT 5'PFS CUU 3'PFS AGA (mixed)
RNA 1: B5 RNA 1
RNA 2: B5 RNA 2 with A27C, C28U, A29U, U52A, C53G, U54A
- Kd: 2.9 ± 0.4 nM

B19: target 2 MT 5'PFS CUU 3'PFS AGU (mixed)
RNA 1: B5 RNA 1
RNA 2: B5 RNA 2 with A27C, C28U, A29U, U52A, C53G
- Kd: 3.1 ± 0.4 nM

B20: target 2 MT 5'PFS CUU 3'PFS CGG (mixed)
RNA 1: B5 RNA 1
RNA 2: B5 RNA 2 with A27C, C28U, A29U, U52C, C53G, U54G
- Kd: 2.9 ± 0.4 nM

B21: target 2 MT 5'PFS AAG 3'PFS CUG (mixed)
RNA 1: B5 RNA 1
RNA 2: B5 RNA 2 with C28A, A29G, U52C, C53U, U54G
- Kd: 4.9 ± 0.7 nM

B22: target 2 MT 5'PFS UAC 3'PFS AGG (mixed)
RNA 1: B5 RNA 1
RNA 2: B5 RNA 2 with A27U, C28A, A29C, U52A, C53G, U54G
- Kd: 4.7 ± 0.7 nM

B23: target 2 MT 5'PFS AGU 3'PFS CCG (mixed)
RNA 1: B5 RNA 1
RNA 2: B5 RNA 2 with C28G, A29U, U52C, U54G
- Kd: 10.2 ± 0.9 nM

B24: target 2 MT 5'PFS CGG 3'PFS UGA (mixed)
RNA 1: B5 RNA 1
RNA 2: B5 RNA 2 with A27C, C28G, A29G, C53G, U54A
- Kd: 6.9 ± 1.3 nM

B25: target 2 MT 5'PFS UAU 3'PFS UCA (mixed)
RNA 1: B5 RNA 1
RNA 2: B5 RNA 2 with A27U, C28A, A29U, U54A
- Kd: 24 ± 5 nM

B26: target 2 MT 5'PFS UGC 3'PFS CCA (mixed)
RNA 1: B5 RNA 1
RNA 2: B5 RNA 2 with A27U, C28G, A29C, U52C, U54A
- Kd: 16 ± 5 nM

B27: target 2 MT 5'PFS CUU 3'PFS AGG (mixed)
RNA 1: B5 RNA 1
RNA 2: B5 RNA 2 with A27C, C28U, A29U, U52A, C53G, U54G
- Kd: 2.4 ± 0.4 nM

B28: target 2 MT 5'PFS CGG 3'PFS UGC (mixed)
RNA 1: B5 RNA 1
RNA 2: B5 RNA 2 with A27C, C28G, A29G, C53G, U54C
- Kd: 4.3 ± 0.5 nM

B29: target 2 MT 5'PFS CUU 3'PFS AGC (mixed)
RNA 1: B5 RNA 1
RNA 2: B5 RNA 2 with A27C, C28U, A29U, U52A, C53G, U54C
- Kd: 2.28 ± 0.22 nM

B30: target 2 MT 5'PFS AGU 3'PFS CCA (mixed)
RNA 1: B5 RNA 1
RNA 2: B5 RNA 2 with C28G, A29U, U52C, U54A
- Kd: 36 ± 11 nM

B31: target 2 MT 5'PFS UCU 3'PFS UCC (mixed)
RNA 1: B5 RNA 1
RNA 2: B5 RNA 2 with A27U, A29U, U54C
- Kd: 7.2 ± 0.7 nM

B32: target 2 MT 5'PFS AAG 3'PFS CUA (mixed)
RNA 1: B5 RNA 1
RNA 2: B5 RNA 2 with C28A, A29G, U52C, C53U, U54A
- Kd: 4.4 ± 0.6 nM

B33: target 2 MT 5'PFS UAU 3'PFS UCG (mixed)
RNA 1: B5 RNA 1
RNA 2: B5 RNA 2 with A27U, C28A, A29U, U54G
- Kd: 27.2 ± 3.2 nM

B34: target 2 MT 5'PFS AAG 3'PFS CUC (mixed)
RNA 1: B5 RNA 1
RNA 2: B5 RNA 2 with C28A, A29G, U52C, C53U, U54C
- Kd: 10 ± 1.6 nM

B35: target 2 MT 5'PFS UGA 3'PFS AGA (mixed)
RNA 1: B5 RNA 1
RNA 2: B5 RNA 2 with A27U, C28G, U52A, C53G, U54A
- Kd: 5.4 ± 0.5 nM

B36: target 2 MT 5'PFS CUU 3'PFS CGA (mixed)
RNA 1: B5 RNA 1
RNA 2: B5 RNA 2 with A27C, C28U, A29U, U52C, C53G, U54A
- Kd: 3.4 ± 0.4 nM

B37: target 2 MT 5'PFS GAG 3'PFS CCA (mixed)
RNA 1: B5 RNA 1
RNA 2: B5 RNA 2 with A27G, C28A, A29G, U52C, U54A
- Kd: 17.2 ± 2.6 nM

B38: target 2 MT 5'PFS ACG 3'PFS UAG (mixed)
RNA 1: B5 RNA 1
RNA 2: B5 RNA 2 with A29G, C53A, U54G
- Kd: 4.6 ± 1.1 nM
